# Reference: patent US20100257638
# System: IL-1-L0-Fok1 zinc finger nuclease (IL-1-Fok1) (synthetic construct)
# Test: cell_activity
# Conditions: inter-chromosomal HR with donor pDAB1600 in tobacco NT1-240; NT1-260 0.1; BY2-380 0.2; donor only 0
sequence,measurement,value
ATTATCCGAGTTTAATAGAACTCGGATAAT (double strand) [IL-1-L0-Fok1 recognition site],activity (events per selection plate),1.2
